Starred links: 1 amine or outer side, 2 acyl side, 3 side chain; linkers in the order of their positions; H or OH if unused. Non-standard residues stand in square brackets, D forms with d. *: point of attachment. Imidazole4carbonyl = O=C(c1cnc[nH]1)*; tBuAla = CC(C)(C)C[C@H](N)C(=O)O; αMeF = C[C@](N)(Cc1ccccc1)C(=O)O; 4Pal = N[C@@H](Cc1ccncc1)C(=O)O; dHyp = O=C(O)[C@H]1C[C@H](O)CN1; Cha = N[C@@H](CC1CCCCC1)C(=O)O; Suc = O=C(CCC(=O)[*:2])[*:1]; Iva = CC[C@](C)(N)C(=O)O; Nle = CCCC[C@H](N)C(=O)O; Aib = CC(C)(N)C(=O)O
Columns and labels:
human Y2 receptor [1] = target: T1, human Y2 receptor (Homo sapiens, UniProt P49146); experiment: Human Y2 Receptor G Protein Binding Assay (GBA), [35S]GTPγS; assay type: biochemical; details: EC50 of test compound/EC50 of PYY(3-36) (PYY3-36 taken as 1), hY2R/CHO membrane fraction
T1 construct: expressed in transfected cells; membrane fraction
T1 sequence (P49146 1-381): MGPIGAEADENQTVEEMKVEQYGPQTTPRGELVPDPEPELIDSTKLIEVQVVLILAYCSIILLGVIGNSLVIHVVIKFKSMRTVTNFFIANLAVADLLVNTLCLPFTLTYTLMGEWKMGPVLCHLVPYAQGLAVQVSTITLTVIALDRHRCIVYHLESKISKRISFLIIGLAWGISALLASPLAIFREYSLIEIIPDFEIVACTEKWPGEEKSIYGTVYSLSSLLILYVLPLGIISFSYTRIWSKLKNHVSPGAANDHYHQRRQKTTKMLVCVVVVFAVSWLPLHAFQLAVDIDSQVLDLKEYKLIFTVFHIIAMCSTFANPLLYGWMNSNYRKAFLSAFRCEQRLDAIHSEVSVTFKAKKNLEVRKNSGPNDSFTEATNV
Procedure, shortened: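 Agonism measured as [35S]GTPγS binding, read by GF/C filtration and scintillation counting after 120 min at room temperature, using human Y2 membranes at 1 μg protein/mL in pH 7.4 Tris/MgCl2/NaCl/GDP buffer. Compound serially diluted 100 μM–1 nM; EC50 normalized to PYY(3-36) (ratio = compound/PYY).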

human Y2 receptor [2] = target: T1, human Y2 receptor; experiment: Receptor Binding Assay (RBA) for Human Y2, [125I]-PYY displacement on hY2R/CHO membrane fraction; details: IC50 of test compound/IC50 of PYY(3-36) (PYY(3-36) taken as 1)
Procedure, shortened: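 hY2R stably expressed in CHO/dhfr− cells; membrane fraction prepared from cells disrupted in 10 mM NaHCO3, 5 mM EDTA buffer with protease inhibitors. Binding read as displacement of [125I]-PYY.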

male C57EL/6J mice = experiment: 3-Days Continuous Subcutaneous Administration Test-1 (food intake suppressing activity); assay type: in vivo, mouse; details: 0.03 mg/kg/day, subcutaneous Alzet pump, food consumption over 3 days; relative to food intake suppression rate for PYY(3-36) (1 mg/kg/day) taken as 100%
Description: (4) Test Method: 3-Days Continuous Subcutaneous Administration Test-1
The food intake suppressing activity of the compound of the present invention was examined by the method described below.
The test compound was dissolved in 50% DMSO so that sustained release would occur at 0.03 mg/kg/day, and the solution was filled in the Alzet Pump (Alzet model: 1003D, sustained release rate: 1 μL/hr, capacity: 100 μL). After the filling, the pump was placed in a 2 mL Eppendorf tube containing 330 μL of physiological saline, and incubated at 37° C. for 2 hours or more. Thereafter, this pump was subcutaneously embedded in the back of each mouse by the method described below. After weighing, each male […] mice at 12-13 weeks of age (25° C., allowed to take food and water ad libitum; 12-hour bright-12-hour dark cycle, lighting turned on at 08:00) was anesthetized with diethyl ether; the skin in the upper back thereof was incised, and the above-mentioned pump was embedded subcutaneously. Thereafter, several drops of penicillin solution (100000 units/mL) were added to the incised part, and the incision was sutured using Michel's surgical needle. This mouse was returned to the rearing cage (reared alone), and given previously weighed food; 3 days later, the amount of remaining food was measured. Food consumption was calculated by subtracting the amount of remaining food after 3 days from the weight of the food given on the day of pump embedding. The food intake suppressing activity of each test compound was expressed as a food intake suppression rate (%) relative to the food intake suppression rate for PYY(3-36) (1 mg/kg/day) taken as 100%.

3-Carboxypropionyl-[D-Pro24, Pya(4)26, Cha27,36, Aib28,31, Lys30]-PYY(23-36) (Suc-S[dP]R[4Pal][Cha][Aib]NK[Aib]TRQR[Cha]-NH2; SMILES C[C@@H](O)[C@H](NC(=O)C(C)(C)NC(=O)[C@H](CCCCN)NC(=O)[C@H](CC(N)=O)NC(=O)C(C)(C)NC(=O)[C@H](CC1CCCCC1)NC(=O)[C@H](Cc1ccncc1)NC(=O)[C@H](CCCNC(=N)N)NC(=O)[C@H]1CCCN1C(=O)[C@H](CO)NC(=O)CCC(=O)O)C(=O)N[C@@H](CCCNC(=N)N)C(=O)N[C@@H](CCC(N)=O)C(=O)N[C@@H](CCCNC(=N)N)C(=O)N[C@@H](CC1CCCCC1)C(N)=O) [compound No. 217]
GBA EC50 Ratio (human Y2 receptor [1]): 1.2
RBA IC50 Ratio (human Y2 receptor [2]): 0.96
food intake suppression rate (%) (male C57EL/6J mice): 28%

3-Carboxypropionyl-[D-Pro24, Pya(4)26, Cha27,36, Aib28,31, Lys30]-PYY(24-36) (Suc-[dP]R[4Pal][Cha][Aib]NK[Aib]TRQR[Cha]-NH2; SMILES C[C@@H](O)[C@H](NC(=O)C(C)(C)NC(=O)[C@H](CCCCN)NC(=O)[C@H](CC(N)=O)NC(=O)C(C)(C)NC(=O)[C@H](CC1CCCCC1)NC(=O)[C@H](Cc1ccncc1)NC(=O)[C@H](CCCNC(=N)N)NC(=O)[C@H]1CCCN1C(=O)CCC(=O)O)C(=O)N[C@@H](CCCNC(=N)N)C(=O)N[C@@H](CCC(N)=O)C(=O)N[C@@H](CCCNC(=N)N)C(=O)N[C@@H](CC1CCCCC1)C(N)=O) [compound No. 303]
GBA EC50 Ratio (human Y2 receptor [1]): 1.2
RBA IC50 Ratio (human Y2 receptor [2]): 1.2
food intake suppression rate (%) (male C57EL/6J mice): 20%

3-Carboxypropionyl-[Gln23, D-Pro24, Pya(4)26, Cha27,36, Aib28,31, Lys30]-PYY(23-36) (Suc-Q[dP]R[4Pal][Cha][Aib]NK[Aib]TRQR[Cha]-NH2; SMILES C[C@@H](O)[C@H](NC(=O)C(C)(C)NC(=O)[C@H](CCCCN)NC(=O)[C@H](CC(N)=O)NC(=O)C(C)(C)NC(=O)[C@H](CC1CCCCC1)NC(=O)[C@H](Cc1ccncc1)NC(=O)[C@H](CCCNC(=N)N)NC(=O)[C@H]1CCCN1C(=O)[C@H](CCC(N)=O)NC(=O)CCC(=O)O)C(=O)N[C@@H](CCCNC(=N)N)C(=O)N[C@@H](CCC(N)=O)C(=O)N[C@@H](CCCNC(=N)N)C(=O)N[C@@H](CC1CCCCC1)C(N)=O) [compound No. 218]
GBA EC50 Ratio (human Y2 receptor [1]): 1.9
RBA IC50 Ratio (human Y2 receptor [2]): 2
food intake suppression rate (%) (male C57EL/6J mice): 27%

4-Imidazolecarbonyl-[Aib24,28,31, Iva25, Pya(4)26, Cha27,36, Lys30]-PYY(23-36) [compound No. 344]
GBA EC50 Ratio (human Y2 receptor [1]): 1.7
RBA IC50 Ratio (human Y2 receptor [2]): 1.9
food intake suppression rate (%) (male C57EL/6J mice): 22%

4-Imidazolecarbonyl-[D-Hyp24, Iva25,28, Pya(4)26, Cha27,36, Lys30, Adb31]-PYY(23-36) [compound No. 337]
GBA EC50 Ratio (human Y2 receptor [1]): 1.3
RBA IC50 Ratio (human Y2 receptor [2]): 0.99
food intake suppression rate (%) (male C57EL/6J mice): 49%

4-Imidazolecarbonyl-[D-Hyp24, Iva25, Pya(4)26, Cha27,36, Aib28,31, Lys30]-PYY(23-36) (Imidazole4carbonyl-S[dHyp][Iva][4Pal][Cha][Aib]NK[Aib]TRQR[Cha]-NH2; SMILES CC[C@](C)(NC(=O)[C@H]1C[C@H](O)CN1C(=O)[C@H](CO)NC(=O)c1cnc[nH]1)C(=O)N[C@@H](Cc1ccncc1)C(=O)N[C@@H](CC1CCCCC1)C(=O)NC(C)(C)C(=O)N[C@@H](CC(N)=O)C(=O)N[C@@H](CCCCN)C(=O)NC(C)(C)C(=O)N[C@H](C(=O)N[C@@H](CCCNC(=N)N)C(=O)N[C@@H](CCC(N)=O)C(=O)N[C@@H](CCCNC(=N)N)C(=O)N[C@@H](CC1CCCCC1)C(N)=O)[C@@H](C)O) [compound No. 299]
GBA EC50 Ratio (human Y2 receptor [1]): 0.92
RBA IC50 Ratio (human Y2 receptor [2]): 1.3
food intake suppression rate (%) (male C57EL/6J mice): 46%

4-Imidazolecarbonyl-[D-Hyp24, Iva25, Pya(4)26, Cha27,36, Leu(Me)28, Lys30, Aib31]-PYY(23-36) (Imidazole4carbonyl-S[dHyp][Iva][4Pal][Cha][tBuAla]NK[Aib]TRQR[Cha]-NH2; ends and bridges not checked) [compound No. 336]
GBA EC50 Ratio (human Y2 receptor [1]): 1.4
RBA IC50 Ratio (human Y2 receptor [2]): 0.75
food intake suppression rate (%) (male C57EL/6J mice): 52%

4-Imidazolecarbonyl-[D-Hyp24, Iva25, Pya(4)26, Cha27,36, αMePhe28, Lys30, Aib31]-PYY(23-36) (Imidazole4carbonyl-S[dHyp][Iva][4Pal][Cha][αMeF]NK[Aib]TRQR[Cha]-NH2; SMILES CC[C@](C)(NC(=O)[C@H]1C[C@H](O)CN1C(=O)[C@H](CO)NC(=O)c1cnc[nH]1)C(=O)N[C@@H](Cc1ccncc1)C(=O)N[C@@H](CC1CCCCC1)C(=O)N[C@@](C)(Cc1ccccc1)C(=O)N[C@@H](CC(N)=O)C(=O)N[C@@H](CCCCN)C(=O)NC(C)(C)C(=O)N[C@H](C(=O)N[C@@H](CCCNC(=N)N)C(=O)N[C@@H](CCC(N)=O)C(=O)N[C@@H](CCCNC(=N)N)C(=O)N[C@@H](CC1CCCCC1)C(N)=O)[C@@H](C)O) [compound No. 343]
GBA EC50 Ratio (human Y2 receptor [1]): 1.0
RBA IC50 Ratio (human Y2 receptor [2]): 0.65
food intake suppression rate (%) (male C57EL/6J mice): 15%

4-Imidazolecarbonyl-[D-Pro24, Iva25, Pya(4)26, Cha27,30,36, Aib28,31]-PYY(23-36) (Imidazole4carbonyl-S[dP][Iva][4Pal][Cha][Aib]N[Cha][Aib]TRQR[Cha]-NH2; SMILES CC[C@](C)(NC(=O)[C@H]1CCCN1C(=O)[C@H](CO)NC(=O)c1cnc[nH]1)C(=O)N[C@@H](Cc1ccncc1)C(=O)N[C@@H](CC1CCCCC1)C(=O)NC(C)(C)C(=O)N[C@@H](CC(N)=O)C(=O)N[C@@H](CC1CCCCC1)C(=O)NC(C)(C)C(=O)N[C@H](C(=O)N[C@@H](CCCNC(=N)N)C(=O)N[C@@H](CCC(N)=O)C(=O)N[C@@H](CCCNC(=N)N)C(=O)N[C@@H](CC1CCCCC1)C(N)=O)[C@@H](C)O) [compound No. 318]
GBA EC50 Ratio (human Y2 receptor [1]): 1.9
RBA IC50 Ratio (human Y2 receptor [2]): 2.3
food intake suppression rate (%) (male C57EL/6J mice): 18%

4-Imidazolecarbonyl-[D-Pro24, Iva25, Pya(4)26, Cha27,36, Aib28,31, Lys30]-PYY(23-36) (Imidazole4carbonyl-S[dP][Iva][4Pal][Cha][Aib]NK[Aib]TRQR[Cha]-NH2; SMILES CC[C@](C)(NC(=O)[C@H]1CCCN1C(=O)[C@H](CO)NC(=O)c1cnc[nH]1)C(=O)N[C@@H](Cc1ccncc1)C(=O)N[C@@H](CC1CCCCC1)C(=O)NC(C)(C)C(=O)N[C@@H](CC(N)=O)C(=O)N[C@@H](CCCCN)C(=O)NC(C)(C)C(=O)N[C@H](C(=O)N[C@@H](CCCNC(=N)N)C(=O)N[C@@H](CCC(N)=O)C(=O)N[C@@H](CCCNC(=N)N)C(=O)N[C@@H](CC1CCCCC1)C(N)=O)[C@@H](C)O) [compound No. 300]
GBA EC50 Ratio (human Y2 receptor [1]): 0.91
RBA IC50 Ratio (human Y2 receptor [2]): 0.77
food intake suppression rate (%) (male C57EL/6J mice): 35%

4-Imidazolecarbonyl-[D-Pro24, Nle25, Pya(4)26, Cha27,36, Aib28,31, Lys30]-PYY(23-36) (Imidazole4carbonyl-S[dP][Nle][4Pal][Cha][Aib]NK[Aib]TRQR[Cha]-NH2; SMILES CCCC[C@H](NC(=O)[C@H]1CCCN1C(=O)[C@H](CO)NC(=O)c1cnc[nH]1)C(=O)N[C@@H](Cc1ccncc1)C(=O)N[C@@H](CC1CCCCC1)C(=O)NC(C)(C)C(=O)N[C@@H](CC(N)=O)C(=O)N[C@@H](CCCCN)C(=O)NC(C)(C)C(=O)N[C@H](C(=O)N[C@@H](CCCNC(=N)N)C(=O)N[C@@H](CCC(N)=O)C(=O)N[C@@H](CCCNC(=N)N)C(=O)N[C@@H](CC1CCCCC1)C(N)=O)[C@@H](C)O) [compound No. 302]
GBA EC50 Ratio (human Y2 receptor [1]): 1.2
RBA IC50 Ratio (human Y2 receptor [2]): 1.7
food intake suppression rate (%) (male C57EL/6J mice): 22%

From US9260500B2, “Peptide and use thereof” (Takeda Pharmaceutical Company Limited, priority 2009, dated 2016)
